Laboratory results reported in patent publication US20200087373A1 (UNIVERSITY OF COPENHAGEN, published 2020).
Ends that are not written are not given here. * marks the point of attachment. C16 diacid = O=C(O)CCCCCCCCCCCCCCC(=O)*; C12 diacid = O=C(O)CCCCCCCCCCC(=O)*; Stearoyl = CCCCCCCCCCCCCCCCCC(=O)*; Lauroyl = CCCCCCCCCCCC(=O)*

T1: human GIP receptor (human, UniProt P48546 22-466)
T1 sequence (looked up): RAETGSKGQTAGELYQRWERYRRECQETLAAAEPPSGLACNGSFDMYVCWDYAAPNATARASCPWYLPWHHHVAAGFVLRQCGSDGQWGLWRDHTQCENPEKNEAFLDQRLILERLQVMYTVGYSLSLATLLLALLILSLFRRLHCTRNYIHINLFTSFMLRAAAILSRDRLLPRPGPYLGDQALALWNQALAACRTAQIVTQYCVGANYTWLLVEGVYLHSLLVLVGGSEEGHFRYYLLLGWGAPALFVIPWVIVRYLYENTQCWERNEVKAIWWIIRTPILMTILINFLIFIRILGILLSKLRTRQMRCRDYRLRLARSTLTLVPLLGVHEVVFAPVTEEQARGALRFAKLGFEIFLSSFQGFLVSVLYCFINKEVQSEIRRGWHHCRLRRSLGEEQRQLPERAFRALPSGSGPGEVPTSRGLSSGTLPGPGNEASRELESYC

B1: AT160 [hGIP(3-30)NH2[H18K]-C18/18] (peptide)
peptide: EGTFISDYSIAMDKIK(Stearoyl)QQDFVNWLLAQK-NH2
modifications: N-terminus assumed
SMILES: CCCCCCCCCCCCCCCCCC(=O)NCCCC[C@H](NC(=O)[C@@H](NC(=O)[C@H](CCCCN)NC(=O)[C@H](CC(=O)O)NC(=O)[C@H](CCSC)NC(=O)[C@H](C)NC(=O)[C@@H](NC(=O)[C@H](CO)NC(=O)[C@H](Cc1ccc(O)cc1)NC(=O)[C@H](CC(=O)O)NC(=O)[C@H](CO)NC(=O)[C@@H](NC(=O)[C@H](Cc1ccccc1)NC(=O)[C@@H](NC(=O)CNC(=O)[C@@H](N)CCC(=O)O)[C@@H](C)O)[C@@H](C)CC)[C@@H](C)CC)[C@@H](C)CC)C(=O)N[C@@H](CCC(N)=O)C(=O)N[C@@H](CCC(N)=O)C(=O)N[C@@H](CC(=O)O)C(=O)N[C@@H](Cc1ccccc1)C(=O)N[C@H](C(=O)N[C@@H](CC(N)=O)C(=O)N[C@@H](Cc1c[nH]c2ccccc12)C(=O)N[C@@H](CC(C)C)C(=O)N[C@@H](CC(C)C)C(=O)N[C@@H](C)C(=O)N[C@@H](CCC(N)=O)C(=O)N[C@@H](CCCCN)C(N)=O)C(C)C
B2: AT153 [hGIP(3-30)NH2[H18R; K30R]-C12/16] (peptide)
peptide: EGTFISDYSIAMDK(Lauroyl)IRQQDFVNWLLAQR-NH2
modifications: N-terminus assumed
SMILES: CCCCCCCCCCCC(=O)NCCCC[C@H](NC(=O)[C@H](CC(=O)O)NC(=O)[C@H](CCSC)NC(=O)[C@H](C)NC(=O)[C@@H](NC(=O)[C@H](CO)NC(=O)[C@H](Cc1ccc(O)cc1)NC(=O)[C@H](CC(=O)O)NC(=O)[C@H](CO)NC(=O)[C@@H](NC(=O)[C@H](Cc1ccccc1)NC(=O)[C@@H](NC(=O)CNC(=O)[C@@H](N)CCC(=O)O)[C@@H](C)O)[C@@H](C)CC)[C@@H](C)CC)C(=O)N[C@H](C(=O)N[C@@H](CCCNC(=N)N)C(=O)N[C@@H](CCC(N)=O)C(=O)N[C@@H](CCC(N)=O)C(=O)N[C@@H](CC(=O)O)C(=O)N[C@@H](Cc1ccccc1)C(=O)N[C@H](C(=O)N[C@@H](CC(N)=O)C(=O)N[C@@H](Cc1c[nH]c2ccccc12)C(=O)N[C@@H](CC(C)C)C(=O)N[C@@H](CC(C)C)C(=O)N[C@@H](C)C(=O)N[C@@H](CCC(N)=O)C(=O)N[C@@H](CCCNC(=N)N)C(N)=O)C(C)C)[C@@H](C)CC
B3: AT149 [hGIP(3-30)NH2[H18R; K30R]-C12diacid/3] (peptide)
peptide: {C12 diacid}-EGTFISDYSIAMDKIRQQDFVNWLLAQR-NH2
SMILES: CC[C@H](C)[C@H](NC(=O)[C@H](CO)NC(=O)[C@H](Cc1ccc(O)cc1)NC(=O)[C@H](CC(=O)O)NC(=O)[C@H](CO)NC(=O)[C@@H](NC(=O)[C@H](Cc1ccccc1)NC(=O)[C@@H](NC(=O)CNC(=O)[C@H](CCC(=O)O)NC(=O)CCCCCCCCCCC(=O)O)[C@@H](C)O)[C@@H](C)CC)C(=O)N[C@@H](C)C(=O)N[C@@H](CCSC)C(=O)N[C@@H](CC(=O)O)C(=O)N[C@@H](CCCCN)C(=O)N[C@H](C(=O)N[C@@H](CCCNC(=N)N)C(=O)N[C@@H](CCC(N)=O)C(=O)N[C@@H](CCC(N)=O)C(=O)N[C@@H](CC(=O)O)C(=O)N[C@@H](Cc1ccccc1)C(=O)N[C@H](C(=O)N[C@@H](CC(N)=O)C(=O)N[C@@H](Cc1c[nH]c2ccccc12)C(=O)N[C@@H](CC(C)C)C(=O)N[C@@H](CC(C)C)C(=O)N[C@@H](C)C(=O)N[C@@H](CCC(N)=O)C(=O)N[C@@H](CCCNC(=N)N)C(N)=O)C(C)C)[C@@H](C)CC
B4: AT159 [hGIP(3-30)NH2[K16R; H18K; K30R]-C16diacid/18] (peptide)
peptide: EGTFISDYSIAMDRIK(C16 diacid)QQDFVNWLLAQR-NH2
modifications: N-terminus assumed
SMILES: CC[C@H](C)[C@H](NC(=O)[C@H](CO)NC(=O)[C@H](Cc1ccc(O)cc1)NC(=O)[C@H](CC(=O)O)NC(=O)[C@H](CO)NC(=O)[C@@H](NC(=O)[C@H](Cc1ccccc1)NC(=O)[C@@H](NC(=O)CNC(=O)[C@@H](N)CCC(=O)O)[C@@H](C)O)[C@@H](C)CC)C(=O)N[C@@H](C)C(=O)N[C@@H](CCSC)C(=O)N[C@@H](CC(=O)O)C(=O)N[C@@H](CCCNC(=N)N)C(=O)N[C@H](C(=O)N[C@@H](CCCCNC(=O)CCCCCCCCCCCCCCC(=O)O)C(=O)N[C@@H](CCC(N)=O)C(=O)N[C@@H](CCC(N)=O)C(=O)N[C@@H](CC(=O)O)C(=O)N[C@@H](Cc1ccccc1)C(=O)N[C@H](C(=O)N[C@@H](CC(N)=O)C(=O)N[C@@H](Cc1c[nH]c2ccccc12)C(=O)N[C@@H](CC(C)C)C(=O)N[C@@H](CC(C)C)C(=O)N[C@@H](C)C(=O)N[C@@H](CCC(N)=O)C(=O)N[C@@H](CCCNC(=N)N)C(N)=O)C(C)C)[C@@H](C)CC
B5: AT158 [hGIP(3-30)NH2[H18K]-C16diacid/18] (peptide)
peptide: EGTFISDYSIAMDKIK(C16 diacid)QQDFVNWLLAQK-NH2
modifications: N-terminus assumed
SMILES: CC[C@H](C)[C@H](NC(=O)[C@H](CO)NC(=O)[C@H](Cc1ccc(O)cc1)NC(=O)[C@H](CC(=O)O)NC(=O)[C@H](CO)NC(=O)[C@@H](NC(=O)[C@H](Cc1ccccc1)NC(=O)[C@@H](NC(=O)CNC(=O)[C@@H](N)CCC(=O)O)[C@@H](C)O)[C@@H](C)CC)C(=O)N[C@@H](C)C(=O)N[C@@H](CCSC)C(=O)N[C@@H](CC(=O)O)C(=O)N[C@@H](CCCCN)C(=O)N[C@H](C(=O)N[C@@H](CCCCNC(=O)CCCCCCCCCCCCCCC(=O)O)C(=O)N[C@@H](CCC(N)=O)C(=O)N[C@@H](CCC(N)=O)C(=O)N[C@@H](CC(=O)O)C(=O)N[C@@H](Cc1ccccc1)C(=O)N[C@H](C(=O)N[C@@H](CC(N)=O)C(=O)N[C@@H](Cc1c[nH]c2ccccc12)C(=O)N[C@@H](CC(C)C)C(=O)N[C@@H](CC(C)C)C(=O)N[C@@H](C)C(=O)N[C@@H](CCC(N)=O)C(=O)N[C@@H](CCCCN)C(N)=O)C(C)C)[C@@H](C)CC

molecular target: T1, human GIP receptor; assay: cell-based or functional assay

Row | Binder | cAMP agonism, EC50 (log) [log M] | cAMP agonism, Emax [%] | cAMP agonism, nM (EC50) [nM] | cAMP antagonism, log (IC50) [log M] | cAMP antagonism, nM (IC50) [nM]
1 | B1 | -6 | 13 | 962 | -7.4 | 38
2 | B2 |  | 0 |  | -6.7 | 187
3 | B3 |  | 50 |  |  | 
4 | B4 | -8.7 | 6 | 2 | -8.2 | 6
5 | B5 | -8.5 | 6 | 3.1 | -8.3 | 5
6 | EGTFISDYSIAMDK(Lauroyl)IHQQDFVNWLLAQK-NH2 [AT154 [hGIP(3-30)NH2-C12/16]] |  | 0 |  | -7.2 | 63
7 | Lauroyl-EGTFISDYSIAMDKIHQQDFVNWLLAQK-NH2 [AT148 [hGIP(3-30)NH2-C12/3]] | -7.9 | 43 | 13 |  | 
